For this assay, the target named is TbAlsin (T. brucei). In words: co-IP; equal volumes (10 uL each) of in vitro translated 35S-Met-labelled HA-tagged TbVps9 protein (bait) and TbRab (prey) mixed, 1 h at room temperature; anti-HA polyclonal antibody and protein A beads; 7 washes with 50 mM Tris pH 7.5, 150 mM NaCl, 10 mM EDTA, 0.1% Triton X-100, 10 mM MgCl2; SDS-PAGE and autoradiography.

In turn, TbRab5A^SN (natural protein) yielded a percent of TbAlsin bound of 50%.

(Values after article PMC6032885.)
